Test results from patent US20070167369A1, “Novel use of isolated polypeptide comprising four FAS-1 domains, EM1 domain and RGD motif” (KYUNGPOOK NATIONAL UNIVERSITY INDUSTRY-ACADEMIC COOPERATION …, priority 2004, published 2007).

B1: Regenin: size control of truncated βig-h3: protein that expresses four copies of the fourth fas-1 domain (protein)
chain: MGTVMDVLKGDNRFSMLVAAIQSAGLTETLNREGVYTVFAPTNEAFRALPPRERSRLLGDAKELANILKYHIGDEILVSGGIGALVRLKSLQGDKLEVSLKNNVVSVNKEPVAEPDIMATNGVVHVITNVLMGTVMDVLKGDNRFSMLVAAIQSAGLTETLNREGVYTVFAPTNEAFRALPPRERSRLLGDAKELANILKYHIGDEILVSGGIGALVRLKSLQGDKLEVSLKNNVVSVNKEPVAEPDIMATNGVVHVITNVLMGTVMDVLKGDNRFSMLVAAIQSAGLTETLNREGVYTVFAPTNEAFRALPPRERSRLLGDAKELANILKYHIGDEILVSGGIGALVRLKSLQGDKLEVSLKNNVVSVNKEPVAEPDIMATNGVVHVITNVLMGTVMDVLKGDNRFSMLVAAIQSAGLTETLNREGVYTVFAPTNEAFRALPPRERSRLLGDAKELANILKYHIGDEILVSGGIGALVRLKSLQGDKLEVSLKNNVVSVNKEPVAEPDIMATNGVVHVITNVL
B2: βig-h3 D-II: recombinant protein containing the second fas-1 domain of human βig-h3 (SEQ ID NO: 62) (protein, listed as Homo sapiens)
chain: NIQQIIEIEDTFETLRAAVAASGLNTMLEGNGQYTLLAPTNEAFEKIPSETLNRILGDPEALRDLLNNHILKSAMCAEAIVAGLSVETLEGTTLEVGCSGDMLTINGKAIISNKDILATNGVIHYIDELLI

Key:
Type in all cases: cell-based, human
HUVECs [1] = test: Endothelial tube formation in Matrigel (Example 14)
Protocol: Matrigel (Chemicon, International Inc, Temecula, Calif.) was added (100 μl) into each well of a 96-well plate and polymerized for 30 minutes at 37° C. HUVECs were suspended in medium at a density of 3×10^5 cells/ml, and 0.1 ml of the cell suspension was pre-incubated with or without the indicated concentration of the truncated βig-h3, the fas-1 domain and Regenin for 40 min at 37° C., then seeded on the surface of the Matrigel. Cells were incubated for 6 to 10 hours at 37° C. The cells were then photographed, and branch points from 4 high-power fields (x200) were counted and averaged.

HUVEC = test: Adhesion of endothelial cells to vitronectin (Example 13-1)
Protocol: Flat-bottomed 96-well ELISA plates (Costar, Corning, Inc., NY) were incubated overnight at 4° C. with 5 μg/ml of vitronectin (Promega, Madison, Wis.) and blocked for 1 hour at room temperature with PBS containing 2% bovine serum albumin (BSA).
Primary human umbilical vein endothelial cells (HUVEC) were cultured at 37° C. in 5% CO2 in M199 medium supplemented with 20% fetal bovine serum. For all the experiments, HUVECs were used at passage 4 or less. HUVEC cells were suspended in medium at a density of 3×10^5 cells/ml, and 0.1 ml of the cell suspension was pre-incubated with or without the indicated concentration of the truncated βig-h3, the fas-1 domain and Regenin for 40 min at 37° C., then added to each well of the coated. After incubation for 5 to 10 minutes at 37° C., unattached cells were removed by rinsing with PBS. Attached cells were then incubated for 1 hour at 37° C. in 50 mM citrated buffer (pH 5.0) containing 3.75 mM p-nitrophenyl-N-acetyl-Dglycosamide and 0.25% Triton X-100. Enzyme activity was blocked by adding 50 mM glycine buffer (pH 10.4) containing 5 mM EDTA, and the absorbance was measured at 405 nm in a Bio-Rad model 550 microplate reader.

HUVECs [2] = test: Migration of endothelial cells to vitronectin, transwell (Example 13-2)
Protocol: Cell migration assays were done in transwell plates (8 μm pore size, Costar, Cambridge, Mass.). The undersurface of the membrane was coated with 5 μg/ml of vitronectin at 4° C. and blocked for 1 hour at room temperature with PBS containing 2% BSA. HUVECs were suspended in medium at a density of 3×10^5 cells/ml, and 0.1 ml of the cell suspension was pre-incubated with or without the indicated concentration of the truncated βig-h3, the fas-1 domain and Regenin for 40 min at 37° C., then added to the upper compartment of the filter. Cells were allowed to migrate for 4 to 6 hours at 37° C. The filters were fixed with 8% glutaraldehyde and stained with crystal violet, and non-migrating cells on the upper surface of the filter were removed by wiping with a cotton swab. The extent of cell migration was determined by light microscopy, and within each well, counting was done in nine randomly selected microscopic high power fields (x200).

HUVECs [3] = test: Endothelial tube formation assay on Matrigel (Examples 9-1 and 11); conditions: Example 11; controls BSA or Nus protein
Protocol: First, 100 μl of Matrigel (Chemicon, International Inc, Temecula, Calif.) was added to each well of a 96-well plate and allowed to polymerize. HUVECs were suspended in medium at a density of 3×10^5 cells/ml, and 0.1 ml of the cell suspension was added to each well of the plate coated with Matrigel. At this time, 5 μM or 10 μM of the fas-1 domain (βig-h3 D-IV) prepared in Example 1 above was added together. A control was either treated with BSA or had no treatment. Thereafter, the cells were incubated at 37° C. for 16-18 hours. The cells were photographed, and endothelial tubes were counted and averaged.
For this purpose, the second fas-1 domain of βig-h3 (βig-h3 D-II) was prepared in the same manner as in Example 1-1 above. Since each domain of stabilin-II is insoluble, it was prepared in the form of soluble protein by cloning into the BamHI/XhoI sites of a Nus-conjugated pET43.1 vector (Novagen, USA). The prepared recombinant proteins were named “Nus-fas3” and “Nus-fas7”, respectively. A control to the second fas-1 domain of βig-h3 was treated with BSA, and a control to the fas-1 domain of stabilin-II was treated with a Nus protein. Thereafter, an endothelial tube formation assay was performed in the same manner as in Example 9-1.

Row | Molecule | 70%-inhibition of tube formation observed at (HUVECs [1]; concentration giving 70% inhibition) [µM] | inhibition of tube formation (HUVECs [1]; various concentrations, 6 to 10 hours) | inhibition of adhesion to vitronectin (HUVEC; 500 nM) | inhibition of adhesion to vitronectin (HUVEC; various concentrations, vitronectin 5 μg/ml) | IC50 (HUVECs [2]; read-out: half-inhibition of migration toward vitronectin observed at) [µM] | inhibition of migration to vitronectin (HUVECs [2]; various concentrations, 4 to 6 hours) | inhibition of endothelial tube formation by various fas-1 domains (HUVECs [3])
1 | B1 | 5 | dose-dependent inhibition | ineffective | dose-dependent inhibition | 5 | dose-dependent inhibition | –
2 | B2 | – | – | – | – | – | – | completely inhibited
